Data set [1] concerns the target T1, CsSDHa (Camellia sinensis, UniProt A0A3G3BK14).
T1 construct: SDH unit only of CsDQD/SDHa (Ile-328 to Gly-588 in AtSDH numbering), MBP fusion from pMAL-c2x, E. coli
Kind of data set: HPLC product quantification. It is filed as biochemical. To be noted: 1 mM each, BTP-HCl pH 7.5, 30°C.

The target in data set [2] is CsDQD/SDHb (Camellia sinensis, UniProt A0A3G3BK08, G296T/D398N/I399R/D400T, form not given). Kind of data set: HPLC product quantification. It is filed as biochemical. To be noted: MTCsDQD/SDHb; SA oxidation with NADP+; residue numbers after AtDQD/SDH.
CsDQD/SDHb (Camellia sinensis, UniProt A0A3G3BK08, G296T/D398N/I399R/D400T, form not given), sequence (A0A3G3BK08 entry or part of it G296T/D398N/I399R/D400T, form open): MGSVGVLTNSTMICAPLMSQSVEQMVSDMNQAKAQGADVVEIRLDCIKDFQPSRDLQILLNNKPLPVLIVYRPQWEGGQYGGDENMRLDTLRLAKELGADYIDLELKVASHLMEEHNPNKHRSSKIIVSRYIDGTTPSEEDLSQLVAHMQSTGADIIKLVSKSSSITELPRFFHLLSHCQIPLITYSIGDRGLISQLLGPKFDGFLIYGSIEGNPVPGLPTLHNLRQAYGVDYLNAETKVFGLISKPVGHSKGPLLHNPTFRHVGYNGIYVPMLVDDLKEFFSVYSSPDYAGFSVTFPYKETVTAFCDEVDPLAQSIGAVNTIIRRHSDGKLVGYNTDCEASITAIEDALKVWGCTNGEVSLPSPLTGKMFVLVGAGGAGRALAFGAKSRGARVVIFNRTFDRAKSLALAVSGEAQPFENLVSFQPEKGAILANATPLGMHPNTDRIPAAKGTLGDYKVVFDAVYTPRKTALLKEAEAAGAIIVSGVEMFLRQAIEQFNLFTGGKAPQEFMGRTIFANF
Data set [3] has as its target CsDQD/SDHb (Camellia sinensis, UniProt A0A3G3BK08). Kind of data set: HPLC product quantification. It is filed as biochemical. To be noted: SA oxidation, 1 mM SA, 1 mM NADP+; BTP-HCl pH 7.5, 30°C, 30 min; very low activity, Km not determinable.
Substrate in data set [4]: NC(=O)C1=CN([C@@H]2O[C@H](COP(=O)(O)OP(=O)(O)OC[C@H]3O[C@@H](n4cnc5c(N)ncnc54)[C@H](OP(=O)(O)O)[C@@H]3O)[C@@H](O)[C@H]2O)C=CC1
Kind of data set: HPLC product assay, Michaelis-Menten. It is filed as biochemical, Camellia sinensis. To be noted: 3-DHS reduction to SA, co-substrate 3-DHS 1.5 mM, BTP-HCl pH 8.5, 30°C, 3 min. The text has this: (§1) HPLC product assay, Michaelis-Menten on CsDQD/SDHc

Substrate in data set [5]: NC(=O)c1ccc[n+]([C@@H]2O[C@H](COP(=O)(O)OP(=O)(O)OC[C@H]3O[C@@H](n4cnc5c(N)ncnc54)[C@H](OP(=O)(O)O)[C@@H]3O)[C@@H](O)[C@H]2O)c1
The data set can be described thus: HPLC product assay, Michaelis-Menten. It is filed as biochemical, Camellia sinensis. To be noted: SA oxidation to 3-DHS, co-substrate SA 1.5 mM, BTP-HCl pH 8.5, 30°C, 3 min.
Excerpt: as §1

Substrate in data set [6]: O=C(O)C1=CC(=O)[C@@H](O)[C@H](O)C1
Kind of data set: HPLC product assay, Michaelis-Menten. It is filed as biochemical, Camellia sinensis. To be noted: 3-DHS reduction to SA, co-substrate NADPH 1.5 mM, BTP-HCl pH 8.5, 30°C, 3 min.
Excerpt: as §1

Substrate in data set [7]: O=C(O)C1=C[C@@H](O)[C@@H](O)[C@H](O)C1
Kind of data set: HPLC product assay, Michaelis-Menten. It is filed as biochemical, Camellia sinensis. To be noted: SA oxidation to 3-DHS, co-substrate NADP+ 1.5 mM, BTP-HCl pH 8.5, 30°C, 3 min.
Excerpt: as §1

Substrate in data set [8]: NC(=O)C1=CN([C@@H]2O[C@H](COP(=O)(O)OP(=O)(O)OC[C@H]3O[C@@H](n4cnc5c(N)ncnc54)[C@H](OP(=O)(O)O)[C@@H]3O)[C@@H](O)[C@H]2O)C=CC1
Kind of data set: HPLC product assay, Michaelis-Menten. To be noted: 3-DHS reduction to SA, co-substrate 3-DHS 1.5 mM, BTP-HCl pH 8.5, 30°C, 3 min. It is filed as biochemical, Camellia sinensis. The text has this:
(§2) HPLC product assay, Michaelis-Menten on CsDQD/SDHd
The source holds these as a separate data set.

Substrate in data set [9]: NC(=O)c1ccc[n+]([C@@H]2O[C@H](COP(=O)(O)OP(=O)(O)OC[C@H]3O[C@@H](n4cnc5c(N)ncnc54)[C@H](OP(=O)(O)O)[C@@H]3O)[C@@H](O)[C@H]2O)c1
Kind of data set: HPLC product assay, Michaelis-Menten. It is filed as biochemical, Camellia sinensis. To be noted: SA oxidation to 3-DHS, co-substrate SA 1.5 mM, BTP-HCl pH 8.5, 30°C, 3 min.
Excerpt: as §2
This is another data set of the same source.

Substrate in data set [10]: O=C(O)C1=CC(=O)[C@@H](O)[C@H](O)C1
Kind of data set: HPLC product assay, Michaelis-Menten. It is filed as biochemical, Camellia sinensis. To be noted: 3-DHS reduction to SA, co-substrate NADPH 1.5 mM, BTP-HCl pH 8.5, 30°C, 3 min.
Excerpt: as §2
The source holds these as a separate data set.

Substrate in data set [11]: O=C(O)C1=C[C@@H](O)[C@@H](O)[C@H](O)C1
Kind of data set: HPLC product assay, Michaelis-Menten. To be noted: SA oxidation to 3-DHS, co-substrate NADP+ 1.5 mM, BTP-HCl pH 8.5, 30°C, 3 min. It is filed as biochemical, Camellia sinensis.
Excerpt: as §2
This is another data set of the same source.

Substrate in data set [12]: NC(=O)C1=CN([C@@H]2O[C@H](COP(=O)(O)OP(=O)(O)OC[C@H]3O[C@@H](n4cnc5c(N)ncnc54)[C@H](OP(=O)(O)O)[C@@H]3O)[C@@H](O)[C@H]2O)C=CC1
Kind of data set: HPLC product assay, Michaelis-Menten. To be noted: 3-DHS reduction to SA, co-substrate 3-DHS 1.5 mM, BTP-HCl pH 8.5, 30°C, 3 min. It is filed as biochemical, Camellia sinensis. The text has this: (§3) HPLC product assay, Michaelis-Menten on CsDQD/SDHa
This is another data set of the same source.

Substrate in data set [13]: NC(=O)c1ccc[n+]([C@@H]2O[C@H](COP(=O)(O)OP(=O)(O)OC[C@H]3O[C@@H](n4cnc5c(N)ncnc54)[C@H](OP(=O)(O)O)[C@@H]3O)[C@@H](O)[C@H]2O)c1
The data set can be described thus: HPLC product assay, Michaelis-Menten. It is filed as biochemical, Camellia sinensis. To be noted: SA oxidation to 3-DHS, co-substrate SA 1.5 mM, BTP-HCl pH 8.5, 30°C, 3 min.
Excerpt: as §3
The source holds these as a separate data set.

Substrate in data set [14]: O=C(O)C1=CC(=O)[C@@H](O)[C@H](O)C1
The data set can be described thus: HPLC product assay, Michaelis-Menten. To be noted: 3-DHS reduction to SA, co-substrate NADPH (per table; b27 pairs the cofactors the other way round), 1.5 mM, BTP-HCl pH 8.5, 30°C, 3 min. It is filed as biochemical, Camellia sinensis.
Excerpt: as §3

Substrate in data set [15]: O=C(O)C1=C[C@@H](O)[C@@H](O)[C@H](O)C1
The data set can be described thus: HPLC product assay, Michaelis-Menten. It is filed as biochemical, Camellia sinensis. To be noted: SA oxidation to 3-DHS, co-substrate NADP+ (per table; b27 pairs the cofactors the other way round), 1.5 mM, BTP-HCl pH 8.5, 30°C, 3 min.
Excerpt: as §3

CsDQD/SDHb (Camellia sinensis, UniProt A0A3G3BK08), sequence (A0A3G3BK08 entry or part of it): as the sequence (A0A3G3BK08 entry or part of it G296T/D398N/I399R/D400T, form open) above, with T296G, N398D, R399I, T400D counted along it

`O=C(O)C1=CC(=O)[C@@H](O)[C@H](O)C1` [3-DHS]: the HPLC product quantification result in data set [1] (3-DHS reduction with NADPH) is given as “CsSDHa recombinant protein had an almost identical enzymatic activity for NADPH-dependent reduction of 3-DHS”.
As for `O=C(O)C1=C[C@@H](O)[C@@H](O)[C@H](O)C1` [SA], the figures for the HPLC product quantification entry in data set [2], in data set [1] (SA oxidation with NADP+) and in [3] were “six times higher oxidation activity of SA than CsDQD/SDHb”, “a lower enzymatic activity for NADP^+-dependent oxidation of SA” and “CsDQD/SDHb exhibited the lowest SA oxidation activity but had no 3-DHS reduction activity”, respectively.

B1: CsDQD/SDHc (Camellia sinensis) (protein)
chain: MASGSFSFATSDVQTSSSGVRSGPTLLCTPLIGTTVDQMLIDMRKAKEIGADMVEIRLDCLREFNPRPDLQILIKQSPLPTLVTYRPIWESGQYEGDENKRQDALRLAMELGADYIDVELQVAQEFNNSISAKKPEKFKVIVSSQNFHSTPSAEAIGNLVARIQATGADIVKIVTTALDITDVARIFQITVHSQIPMIGIAMGERGLISRLLSPKFNGYLTYAALEAGAISAPGQPTVKDLLDLYNFRLIRPDTKVYGIIGKPVGHSKSPLLFNESFKKVGLNSVYVHLLVDDVKKFFSTYSSVDFAGFSCTIPHKEVALECMDEIDQIAKKIGAINNIVRRPDGTLKSYNTDYIGAISAIEDGLRESNGSSPATSSPLAGKLFVVLGAGGAGKSLAYGAQQKGARVVVANRTFERAKELAEKVGGKALTLEEVNDFHPEEGMILANTTSVGMKPNIDLTPISKEALKHYDLVFDAIYTPKDTRLLREARECGKIIVYGTEMLIRQGFEQYKNFTGLQAPEELFRELMSRHA
B1: the Km (commonly the concentration of substrate that gives half-maximal velocity) in data set [4] is 267.244 µM; in [5], 114.553 µM; in [6], 330.933 µM; in [7] it was 199.653 µM. For the same molecule, the kcat/Km – broadly, the second-order rate constant that governs catalysis at low substrate concentration – in data set [4] stood at 193 M⁻¹ s⁻¹; in data set [5], 372 M⁻¹ s⁻¹; in data set [6], 507 M⁻¹ s⁻¹; in [7], 536 M⁻¹ s⁻¹.

B2: CsDQD/SDHd (Camellia sinensis) (protein)
chain: MTLSSIPISEGGRRNPTMICAPVMAENVDQMLLMMRKAKELGADLVEVRIDYLKNFSPHHDLQILIKQCPLPTLITYRPTWEGGQFDGDETRRQAALRQAVELGADYIDIELKVADEFYKLIQGKKPEKVKIIVSSHNYENTPSAEEIGNLAARIQATGADIVKIATTAQDITDSARIFQLLAHSQVPTIGIVMGERGLMSRILCAKFGGFLTFGALESGIVSAPGQPTLKDLLELYNFRQIGPDTKVHGVIGNPIGHSKSPHLYNTAFRSAGFNGIYLPLLVDSVANFFNTYSSPDFVGYSYTIPHKEAGLKCCDEVDPIAEAIGAISCMVRKPSDGKLIGYNVDYLGAIGAIEEALGGSNGSSNGAVSPLASKLFVVIGAGGAGKALAYGGKEKGARVVVANRTYEKAKELASKVDGEAITLAELDDFHPEDGMILANTTSVGMKPKTDATPISKKALNRYSLVFGAIYTPKWTRLLQEAQDSGAKVVFGTEMFINQAFVQFERFTGMPAPKELIRETLAKNT
As to B2, the Michaelis-Menten constant (Km) was found to be 248.798 µM in data set [8], 46.342 µM in [9], 465.971 µM in data set [10] and 610.643 µM in data set [11]. Also, the kcat/Km in data set [8] was found to be 197 M⁻¹ s⁻¹; in data set [9], 128 M⁻¹ s⁻¹; in data set [10], 99.5 M⁻¹ s⁻¹; in data set [11] it was 138 M⁻¹ s⁻¹.

B3: CsDQD/SDHa (Camellia sinensis) (protein)
chain: MELVAPVVAGCGVKMESEGMRKNSTLICVPLMADSVDQMLIYMNKAKLNGADLVEVRLDSLKSFNPPLDIETLIKRCPLPTLFTYRPKWEGGMYDGDESSRLEALQLAMELGADYIDVELQVIHEFNSSMHGKKPAKCKLIVSSHNYENTPSVEDLGNLVVKIQATGADIVKIATTALDITDAARVFQITVHSQVRGVPIIAMVMGERGLMARILCPKFGGYLTFGTLESGIVSAPGQPTMDDLVNLYNIRQIGPDTKVFGIIGKPVGHSKSPILYNEAFKKVGFNGVYLHLLVDDVANFLQTYSSTDFAGFSCTIPHKEAALKCCDEVDPVAKSIGAVNCIVRKSDGKFFGCNTDYVGAITAIEDALGGLQHVNGMVVSPLSGKLFVVIGAGGAGKALAYGAKAKGAKVVIANRTYERAKEIADTIGGDALSLADLSNFHPEDGMILANTTSIGMQPKVDETPVPKQALKSYALVFDAVYTPKITRLLREAEESGAKIVTGVEMFIGQAYEQFERFTGLPAPKELFGKIMAKY
In the case of B3, the Km in data set [12] is 270.306 µM; in data set [13], 138.031 µM; in data set [14], 286.576 µM; in [15], 272.782 µM. In addition, the kcat/Km in [12] is 746 M⁻¹ s⁻¹; in [13], 845 M⁻¹ s⁻¹; in data set [14], 1410 M⁻¹ s⁻¹; in data set [15], 562 M⁻¹ s⁻¹.

Source of the values: publication PMC6797610, “Functional Analysis of 3-Dehydroquinate Dehydratase/Shikimate Dehydrogenases Involved in Shikimate Pathway in Camellia sinensis” (Frontiers in Plant Science, 2019).
